Read-outs that look alike come from different tables or passages of the source.
Assays:
[1] = biological target: T1, recombinant human activated FVII (FVIIa) (human, UniProt P08709 61-212; P08709 213-466, ten glutamate residues of the Gla domain may be gamma-carboxylated); assay: cell-based or functional assay
T1 sequence 1: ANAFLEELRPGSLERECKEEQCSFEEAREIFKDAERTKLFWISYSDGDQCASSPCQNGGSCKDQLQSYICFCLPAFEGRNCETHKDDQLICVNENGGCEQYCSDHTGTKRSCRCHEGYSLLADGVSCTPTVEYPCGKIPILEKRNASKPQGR
T1 sequence 2: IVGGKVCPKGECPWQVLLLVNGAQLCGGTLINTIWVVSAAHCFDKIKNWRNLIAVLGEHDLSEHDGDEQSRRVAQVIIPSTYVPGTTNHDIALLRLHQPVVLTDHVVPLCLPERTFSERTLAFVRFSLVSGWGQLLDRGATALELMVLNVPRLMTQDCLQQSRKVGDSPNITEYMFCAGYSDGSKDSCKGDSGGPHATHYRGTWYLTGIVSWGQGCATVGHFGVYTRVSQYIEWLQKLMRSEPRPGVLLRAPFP

[2] = biological target: T2, sTLT1 (SEQ ID No: 3 with six histidine residues added at the C-terminus) (human, UniProt Q86YW5 16-162); assay: KD (TLT-1) listed for the biAbs of Example 30 (SPR value of Table 21)
T2 construct: Soluble TLT-1 used in SPR
T2 sequence: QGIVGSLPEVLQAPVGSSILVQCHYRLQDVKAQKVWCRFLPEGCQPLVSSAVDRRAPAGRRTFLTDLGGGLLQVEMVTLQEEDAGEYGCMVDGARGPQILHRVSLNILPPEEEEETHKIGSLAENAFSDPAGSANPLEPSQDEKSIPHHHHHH
Experimental: (§1) Binding of sTLT1 (corresponding to SEQ ID No: 3 with six histidine residues added at the C-terminus) to biAb from (Example 4) was probed by surface plasmon resonance (Biacore T200) at 25° C. Anti-human IgG was immobilised on a CM5 sensor chip (both supplied by GE Healthcare) using standard amine coupling chemistry. Purified biAbs according to Table 21 (1 nM) were injected at a flow rate of 10 μl/min for 1 min. Subsequently, sTLT1, between 0 and 60 μM, were injected at a flow rate of […] for 3 min to allow for binding to the biAb followed by a 3 min buffer injection allowing for dissociation from the biAb. The running buffer was prepared by diluting 10-fold the 10×HBS-P buffer (supplied by GE Healthcare) and supplemented with 1 mg/ml BSA and 5 mM CaCl₂) to give 10 mM HEPES, 150 mM NaCl, 0.05% v/v Polysorbate 20, pH 7.4, 5 mM CaCl₂), 1 mg/ml bovine serum albumin (BSA). The running buffer was also used for dilution of biAb and sTLT1 samples. Regeneration of the chip was achieved using recommended regeneration buffer consisted of 3M MgCl2 (supplied by GE Healthcare). Binding data were analysed according to a 1:1 model using BiaEvaluation 4.1 supplied by the manufacturer (Biacore AB, Uppsala, Sweden).

[3] = biological target: T2, sTLT1 (SEQ ID No: 3 with six histidine …); assay: SPR, Biacore T200, 25 C; biAb captured on anti-human IgG, sTLT1 injected; 1:1 model
Experimental: as §1

[4] = biological target: T1, recombinant human activated FVII (FVIIa); assay: dissociation constant listed with the stimulatory activities (SPR)
[5] = biological target: T2, sTLT1 (SEQ ID No: 3 with six histidine …); assay: as above
[6] = biological target: T1, recombinant human activated FVII (FVIIa); assay: cell-based or functional assay; remark: listed apart in the source

Row | Binder | Stimulation (fold): FXa generated by FVIIa with lipidated TLT-1 and 100 nM biAb, relative to free FVIIa [1] | Kd [2] | Kd [3] | Kd [4] | Kd [5] | Stimulation (fold): FXa generated by FVIIa with lipidated TLT-1 and 100 nM biAb, relative to free FVIIa [6]
1 | biAb0095 (bispecific antibody, human IgG4 S228P, kappa, Duobody, constant domain type H (IgG4): anti-FVII(a) arm mAb0865, anti-TLT-1 arm mAb1047; also called mAb0865 x mAb1047) heavy 1: QVQLQESGPGLVKPSQTLSLTCTVSGYSISSDSAWSWIRQPPGKGLEWIGYIQYSGSTNYNPSLKSRVTISRDTSKNQFSLKLSSVTAADTAVYYCARSVNYYGNSFAVGYWGQGTLVTVSSASTKGPSVFPLAPCSRSTSESTAALGCLVKDYFPEPVTVSWNSGALTSGVHTFPAVLQSSGLYSLSSVVTVPSSSLGTKTYTCNVDHKPSNTKVDKRVESKYGPPCPPCPAPEFLGGPSVFLFPPKPKDTLMISRTPEVTCVVVDVSQEDPEVQFNWYVDGVEVHNAKTKPREEQFNSTYRVVSVLTVLHQDWLNGKEYKCKVSNKGLPSSIEKTISKAKGQPREPQVYTLPPSQEEMTKNQVSLTCLVKGFYPSDIAVEWESNGQPENNYKTTPPVLDSDGSFLLYSKLTVDKSRWQEGNVFSCSVMHEALHNHYTQKSLSLSLGK light 1: EIVLTQSPATLSLSPGERATLSCRASQGISDYLHWYQQKPGEAPRLLIKYTSQPATGIPARFSGSGSGTDFTLTISSLEPEDFAVYYCQNGHSFPLTFGQGTKLEIKRTVAAPSVFIFPPSDEQLKSGTASVVCLLNNFYPREAKVQWKVDNALQSGNSQESVTEQDSKDSTYSLSSTLTLSKADYEKHKVYACEVTHQGLSSPVTKSFNRGEC heavy 2: not shown light 2: DIVMTQTPLSSPVTLGQPASISCRSSQSLVHRNGNTYFHWLQQRPGQPPRLLIYKVSNRFSGVPDRFSGSGAGTDFTLKISRVEAEDVGVYYCSQSTHVPYTFGQGTKLEIKRTVAAPSVFIFPPSDEQLKSGTASVVCLLNNFYPREAKVQWKVDNALQSGNSQESVTEQDSKDSTYSLSSTLTLSKADYEKHKVYACEVTHQGLSSPVTKSFNRGEC | 13.9 fold | 75 nM | 75 nM | 0.06 nM | 75 nM | 
2 | biAb0001 (bispecific antibody, human IgG4 S228P, kappa, Duobody, constant domain type H (IgG4): anti-FVII(a) arm mAb0865, anti-TLT-1 arm mAb1076; also called anti-FVII(a)/anti-TLT-1 bispecific antibody; mAb0865 x mAb1076) heavy 1: QVQLQESGPGLVKPSQTLSLTCTVSGYSISSDSAWSWIRQPPGKGLEWIGYIQYSGSTNYNPSLKSRVTISRDTSKNQFSLKLSSVTAADTAVYYCARSVNYYGNSFAVGYWGQGTLVTVSSASTKGPSVFPLAPCSRSTSESTAALGCLVKDYFPEPVTVSWNSGALTSGVHTFPAVLQSSGLYSLSSVVTVPSSSLGTKTYTCNVDHKPSNTKVDKRVESKYGPPCPPCPAPEFLGGPSVFLFPPKPKDTLMISRTPEVTCVVVDVSQEDPEVQFNWYVDGVEVHNAKTKPREEQFNSTYRVVSVLTVLHQDWLNGKEYKCKVSNKGLPSSIEKTISKAKGQPREPQVYTLPPSQEEMTKNQVSLTCLVKGFYPSDIAVEWESNGQPENNYKTTPPVLDSDGSFLLYSKLTVDKSRWQEGNVFSCSVMHEALHNHYTQKSLSLSLGK light 1: EIVLTQSPATLSLSPGERATLSCRASQGISDYLHWYQQKPGEAPRLLIKYTSQPATGIPARFSGSGSGTDFTLTISSLEPEDFAVYYCQNGHSFPLTFGQGTKLEIKRTVAAPSVFIFPPSDEQLKSGTASVVCLLNNFYPREAKVQWKVDNALQSGNSQESVTEQDSKDSTYSLSSTLTLSKADYEKHKVYACEVTHQGLSSPVTKSFNRGEC heavy 2: not shown light 2: DIVMTQTPLSSPVTLGQPASISCRSSQSLVHRQGNTYFHWLQQRPGQPPRLLIYKVSNRFSGVPDRFSGSGAGTDFTLKISRVEAEDVGVYYCSQSTHVPYTFGQGTKLEIKRTVAAPSVFIFPPSDEQLKSGTASVVCLLNNFYPREAKVQWKVDNALQSGNSQESVTEQDSKDSTYSLSSTLTLSKADYEKHKVYACEVTHQGLSSPVTKSFNRGEC | 29.2 fold | 2.9 nM | 2.9 nM | 0.06 nM | 2.9 nM | 29.2 fold
3 | biAb0015 (bispecific antibody, human IgG4 S228P, kappa, Duobody, constant domain type H (IgG4): anti-FVII(a) arm mAb0865, anti-TLT-1 arm mAb1038; also called mAb0865 x mAb1038) heavy 1: QVQLQESGPGLVKPSQTLSLTCTVSGYSISSDSAWSWIRQPPGKGLEWIGYIQYSGSTNYNPSLKSRVTISRDTSKNQFSLKLSSVTAADTAVYYCARSVNYYGNSFAVGYWGQGTLVTVSSASTKGPSVFPLAPCSRSTSESTAALGCLVKDYFPEPVTVSWNSGALTSGVHTFPAVLQSSGLYSLSSVVTVPSSSLGTKTYTCNVDHKPSNTKVDKRVESKYGPPCPPCPAPEFLGGPSVFLFPPKPKDTLMISRTPEVTCVVVDVSQEDPEVQFNWYVDGVEVHNAKTKPREEQFNSTYRVVSVLTVLHQDWLNGKEYKCKVSNKGLPSSIEKTISKAKGQPREPQVYTLPPSQEEMTKNQVSLTCLVKGFYPSDIAVEWESNGQPENNYKTTPPVLDSDGSFLLYSKLTVDKSRWQEGNVFSCSVMHEALHNHYTQKSLSLSLGK light 1: EIVLTQSPATLSLSPGERATLSCRASQGISDYLHWYQQKPGEAPRLLIKYTSQPATGIPARFSGSGSGTDFTLTISSLEPEDFAVYYCQNGHSFPLTFGQGTKLEIKRTVAAPSVFIFPPSDEQLKSGTASVVCLLNNFYPREAKVQWKVDNALQSGNSQESVTEQDSKDSTYSLSSTLTLSKADYEKHKVYACEVTHQGLSSPVTKSFNRGEC heavy 2: not shown light 2: DIVMTQTPLSSPVTLGQPASISCRSSQSLVHRPGNTYFHWLQQRPGQPPRLLIYKVSNRFSGVPDRFSGSGAGTDFTLKISRVEAEDVGVYYCSQSTHVPYTFGQGTKLEIKRTVAAPSVFIFPPSDEQLKSGTASVVCLLNNFYPREAKVQWKVDNALQSGNSQESVTEQDSKDSTYSLSSTLTLSKADYEKHKVYACEVTHQGLSSPVTKSFNRGEC | 18.7 fold | 19 nM | 19 nM | 0.06 nM | 19 nM | 
4 | biAb0090 (bispecific antibody, human IgG4 S228P, kappa, Duobody, constant domain type H (IgG4): anti-FVII(a) arm mAb0865, anti-TLT-1 arm mAb1049; also called mAb0865 x mAb1049) heavy 1: QVQLQESGPGLVKPSQTLSLTCTVSGYSISSDSAWSWIRQPPGKGLEWIGYIQYSGSTNYNPSLKSRVTISRDTSKNQFSLKLSSVTAADTAVYYCARSVNYYGNSFAVGYWGQGTLVTVSSASTKGPSVFPLAPCSRSTSESTAALGCLVKDYFPEPVTVSWNSGALTSGVHTFPAVLQSSGLYSLSSVVTVPSSSLGTKTYTCNVDHKPSNTKVDKRVESKYGPPCPPCPAPEFLGGPSVFLFPPKPKDTLMISRTPEVTCVVVDVSQEDPEVQFNWYVDGVEVHNAKTKPREEQFNSTYRVVSVLTVLHQDWLNGKEYKCKVSNKGLPSSIEKTISKAKGQPREPQVYTLPPSQEEMTKNQVSLTCLVKGFYPSDIAVEWESNGQPENNYKTTPPVLDSDGSFLLYSKLTVDKSRWQEGNVFSCSVMHEALHNHYTQKSLSLSLGK light 1: EIVLTQSPATLSLSPGERATLSCRASQGISDYLHWYQQKPGEAPRLLIKYTSQPATGIPARFSGSGSGTDFTLTISSLEPEDFAVYYCQNGHSFPLTFGQGTKLEIKRTVAAPSVFIFPPSDEQLKSGTASVVCLLNNFYPREAKVQWKVDNALQSGNSQESVTEQDSKDSTYSLSSTLTLSKADYEKHKVYACEVTHQGLSSPVTKSFNRGEC heavy 2: not shown light 2: DIVMTQTPLSSPVTLGQPASISCRSSQSLVHRNGNTYFHWLQQRPGQPPRLLIYKVSNRFSGVPDRFSGSGAGTDFTLKISRVEAEDVGVYYCSQSTHVPYTFGQGTKLEIKRTVAAPSVFIFPPSDEQLKSGTASVVCLLNNFYPREAKVQWKVDNALQSGNSQESVTEQDSKDSTYSLSSTLTLSKADYEKHKVYACEVTHQGLSSPVTKSFNRGEC | 11.1 fold | 320 nM | 320 nM | 0.06 nM | 320 nM | 
